Measurements: patent publication US20060270591A1, “Androgen receptor coregulators” (priority 2002, published 2006)

T1: PR (Homo sapiens, UniProt P06401)
T1 construct: expressed in transfected cells; host or cells: DU145, PC-3
T1 sequence (P06401 1-933): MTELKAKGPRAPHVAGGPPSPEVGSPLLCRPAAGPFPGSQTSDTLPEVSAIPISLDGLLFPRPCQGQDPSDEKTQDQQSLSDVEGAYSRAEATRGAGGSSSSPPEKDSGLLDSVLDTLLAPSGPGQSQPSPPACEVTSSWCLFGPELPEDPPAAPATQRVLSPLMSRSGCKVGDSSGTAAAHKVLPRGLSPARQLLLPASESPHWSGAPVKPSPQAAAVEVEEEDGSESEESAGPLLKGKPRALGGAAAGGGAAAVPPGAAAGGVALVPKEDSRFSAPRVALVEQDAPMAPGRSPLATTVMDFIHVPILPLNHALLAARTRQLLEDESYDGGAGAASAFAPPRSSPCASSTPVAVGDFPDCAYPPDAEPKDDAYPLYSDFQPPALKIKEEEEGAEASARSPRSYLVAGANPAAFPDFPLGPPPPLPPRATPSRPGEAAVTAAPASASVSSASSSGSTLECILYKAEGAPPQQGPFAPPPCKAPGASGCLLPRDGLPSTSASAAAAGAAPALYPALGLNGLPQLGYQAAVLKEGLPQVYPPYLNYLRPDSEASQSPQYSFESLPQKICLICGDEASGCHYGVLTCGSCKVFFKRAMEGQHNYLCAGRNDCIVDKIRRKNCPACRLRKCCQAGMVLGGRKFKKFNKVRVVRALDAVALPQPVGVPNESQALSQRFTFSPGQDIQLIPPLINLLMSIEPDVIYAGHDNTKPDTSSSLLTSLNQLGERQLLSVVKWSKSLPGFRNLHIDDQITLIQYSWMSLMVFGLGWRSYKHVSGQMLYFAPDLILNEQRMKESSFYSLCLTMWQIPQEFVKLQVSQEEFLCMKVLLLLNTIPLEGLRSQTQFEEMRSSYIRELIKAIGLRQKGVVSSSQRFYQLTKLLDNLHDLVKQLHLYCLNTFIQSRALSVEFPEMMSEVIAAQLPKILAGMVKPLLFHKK


Experiments:
PR = target: T1, PR; assay: PR transactivation reporter gene assay (Example 2); format: cell-based
Method: 12. […] PC-3 (A) or DU145 (B) cells were transfected with MMTV-CAT (2.5 μg), steroid receptor expression plasmid (AR, PR, or GR; 1.0 μg for PC-3 and 0.75 μg for DU145), and pSG5-C′-ARA54 (C′) or pSG5-mt-ARA54 (mt) (8.0 μg for PC-3 and 6.75 μg for DU145), with (for DU145) or without (for PC-3) pSG5-fl-ARA54 (2.25 μg). The total amount of DNA was adjusted to 12.5-13.25 μg with pSG5 for each transfection. […] The CAT activity is presented relative to that of vector alone with cognate ligand in each panel (black bars; set as 100%). Values represent the mean±SD of at least three determinations.
394. The human prostate cancer cell lines, LNCaP, PC-3, and DU145, were maintained in Dulbecco's minimum essential medium (DMEM) containing 5% fetal calf serum (FCS). Transfections using the calcium phosphate precipitation method and chloramphenicol acetyltransferase (CAT) and luciferase (Luc) assays were performed as previously described (Miyamoto et al. (1998) Proc. Natl. Acad. Sci. U.S.A. 95, 7379-7384; Yeh et al. (1999) Endocrine 11, 195-202; Miyamoto et al. (1998) Proc. Natl. Acad. Sci. U.S.A. 95, 11083-11088). Briefly, 1-4×10^5 cells were plated on 35-mm or 60-mm dishes 24 h before adding the precipitation mix containing a CAT or Luc reporter gene and a β-galactosidase expression plasmid (pCMV-β-gal) as an internal control for normalization of transfection efficiency. The medium was changed to phenol-red-free DMEM with 5% charcoal-stripped FCS 1 h before transfection. In each experiment, the total amount of transfected DNA per dish was maintained as a constant by addition of empty expression vector (pSG5 or pVP16, as appropriate). […] The cells were then harvested and whole cell extracts were used for CAT or Luc assay. The CAT activity was quantitated with a PhosphorImager (Molecular Dynamics). The Luc assay was determined using a Dual-Luciferase Reporter Assay System (Promega) and luminometer.

AR = AR transactivation assay, MMTV-CAT reporter, transient transfection (Example 1); format: cell-based, human
Method: Human prostate cancer DU145 or PC3 cells, or human lung carcinoma cells NCI H1299 were grown in Dulbecco's minimal essential medium (DMEM) containing penicillin (25 U/ml), streptomycin (25˜g/ml), and 5% fetal calf serum (FCS). One hour before transfection, the medium was changed to DMEM with 5% charcoal-stripped FCS. […] A β-galactosidase expression plasmid, pCMV-β-gal, was used as an internal control for transfection efficiency.
The medium was changed 24 hr posttransfection and the cells treated with either steroid hormones or hydroxyflutamide, and cultured for an additional 24 hr. Cells were harvested and assayed for CAT activity after the cell lysates were normalized by using β-galactosidaseas an internal control. Chloramphenicol acetyltransferase (CA) activity was visualized by PhosphorImager (Molecular Dynamics) and quantitated by ImageQuant software (Molecular Dynamics).

Sequence of AR (P10275 whole entry, the tested form may be a part): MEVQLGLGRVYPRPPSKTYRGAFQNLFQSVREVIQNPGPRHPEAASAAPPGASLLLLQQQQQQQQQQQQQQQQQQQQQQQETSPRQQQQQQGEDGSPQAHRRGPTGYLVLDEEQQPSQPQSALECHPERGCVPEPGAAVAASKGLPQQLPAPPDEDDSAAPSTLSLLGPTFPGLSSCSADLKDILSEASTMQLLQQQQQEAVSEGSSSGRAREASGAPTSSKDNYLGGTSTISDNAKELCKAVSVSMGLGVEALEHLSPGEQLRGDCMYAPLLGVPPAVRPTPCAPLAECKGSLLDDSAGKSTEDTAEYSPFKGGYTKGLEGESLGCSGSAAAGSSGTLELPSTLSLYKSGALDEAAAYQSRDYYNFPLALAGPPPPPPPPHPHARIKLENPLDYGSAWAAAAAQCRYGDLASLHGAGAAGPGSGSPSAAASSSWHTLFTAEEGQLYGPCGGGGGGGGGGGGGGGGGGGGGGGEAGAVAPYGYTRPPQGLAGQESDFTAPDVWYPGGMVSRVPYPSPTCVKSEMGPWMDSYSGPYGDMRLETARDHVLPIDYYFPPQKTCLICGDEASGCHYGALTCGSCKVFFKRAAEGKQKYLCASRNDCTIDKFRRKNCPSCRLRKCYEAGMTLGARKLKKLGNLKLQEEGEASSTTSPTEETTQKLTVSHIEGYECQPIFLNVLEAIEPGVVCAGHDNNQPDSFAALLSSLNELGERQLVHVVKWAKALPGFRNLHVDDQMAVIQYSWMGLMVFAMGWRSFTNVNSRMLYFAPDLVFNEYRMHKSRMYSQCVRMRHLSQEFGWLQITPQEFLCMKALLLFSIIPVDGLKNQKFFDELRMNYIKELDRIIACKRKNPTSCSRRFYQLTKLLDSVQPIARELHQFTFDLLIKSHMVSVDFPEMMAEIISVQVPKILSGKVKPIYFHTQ

Row | effect on fl-ARA54-induced PR transcription (PR; DU145 cells) | effect on PR-mediated transactivation (PR; PC-3 cell line, presence of P) | induction of PR transcription (PR; DU145 cells, cotransfected with PR) [fold] | Molecule | inhibition of AR-mediated transcription (AR; H1299 cells, endogenous ARA54) | enhancement of the transcription activity of AR (AR; DU145 cells) | enhancement of wtAR transactivation by coexpression (AR; wtAR, DHT 10^−10 to 10^−8 M)
1 | little effect | only a marginal effect | – | C′-ARA54: C-terminal region (amino acids 361-474) of ARA54 (protein, Homo sapien, C-terminal region (amino acids 361-474) of ARA54) RNEYLQADEANKRLLDQRYGKRVIQKALEEMESKEWLEKNSKSCPCCGTPIEKLDGCNKMTCTGCMQYFCWICMGSLSRANPYKHFNDPGSPCFNRLFYAVDVDDDIWEDEVED | up to 70% | – | –
2 | – | – | 2.9 | ARA54: 54 kDa protein that interacts with AR in an androgen-dependent manner; AR coactivator (protein) MSSEDREAQEDELLALASIYDGDEFRKAESVQGGETRIYLDLPQNFKIFVSGNSNECLQNSGFEYTICFLPPLVLNFELPPDYPSSSPPSFTLSGKWLSPTQLSALCKHLDNLWEEHRGSVVLFAWMQFLKEETLAYLNIVSPFELKIGSQKKVQRRTAQASPNTELDFGGAAGSDVDQEEIVDERAVQDVESLSNLIQEILDFDQAQQIKCFNSKLFLCSICFCEKLGSECMYFLECRHVYCKACLKDYFEIQIRDGQVQCLNCPEPKCPSVATPGQVKELVEAELFARYDRLLLQSSLDLMADVVYCPRPCCQLPVMQEPGCTMGICSSCNFAFCTLCRLTYHGVSPCKVTAEKLMDLRNEYLQADEANKRLLDQRYGKRVIQKALEEMESKEWLEKNSKSCPCCGTPIEKLDGCNKMTCTGCMQYFCWICMGSLSRANPYKHFNDPGSPCFNRLFYAVDVDDDIWEDEVED | – | up to 6 fold | 3-5 fold
